Here are results for ten molecules from patent US20190248916A1 (Hoffmann-La Roche, published 2019).

The target of experiment [1] is T1, HLA-A2/WT1VLD complex (soluble) (human).
T1 construct: also called HLA-A02/WT1VLD pMHC; HLA-A02/VLD pMHC
The experiment is described as follows: SPR, pMHC captured by anti-His.
Method: (§1) For determination of avidity and specificity of the HLA-A2/WT1×CD3 bispecific antibodies to HLA-A2/WT1RMF, SPR experiments were again performed at 25° C. on a Biacore T200 with HBS-EP as running buffer (0.01 M HEPES pH 7.4, 0.15 M NaCl, 0.005% Surfactant P20 (GE Healthcare)). […] The HLA-A2/WT1RMF or HLA-A2/WT1VLD was captured for 30 sec and 10 μl/min at 5 or 10 nM (for the bispecific antibody or IgG measurement, respectively). […] The dissociation phase was monitored for 240 sec and triggered by switching from the sample solution to HBS-EP. The chip surface was regenerated after every cycle using an injection of 10 mM glycine pH 2 for 60 sec. Bulk refractive index differences were corrected for by subtracting the response obtained on the reference flow cell (which contains the anti-His antibody, but without HLA-A2/WT1RMF captured on it). Even though it is a 2:1 interaction (analyte is bivalent) the affinity constants were derived from the kinetic rate constants by fitting to a 1:1 Langmuir binding using the BIAeval software (GE Healthcare).

Experiment [2] addresses T2, HLA-A2/WT1RMF complex (soluble) (human).
T2 construct: also called HLA-A02/WT1RMF pMHC; HLA-A02/RMF pMHC
The experiment is described as follows: SPR, antibody captured (anti-human Fc), pMHC in solution; affinity. On the technique in general: Surface plasmon resonance follows binding to a sensor surface in real time, without labels.
Method: The bispecific constructs were captured for 30 s at 5 nM. […] The dissociation phase was monitored for 120 s and triggered by switching from the sample solution to HBS-EP. The chip surface was regenerated after every cycle using an injection of 3M MgCl₂ at 10 μl/min for 30 sec. Bulk refractive index differences were corrected for by subtracting the response obtained on the reference flow cell which contains the anti-human Fc antibody, but without bispecific construct captured on it. The affinity constants were derived from the kinetic rate constants by fitting to a 1:1 Langmuir binding using the BIAeval software (GE Healthcare).

Experiment [3] deals with T2, HLA-A2/WT1RMF complex (soluble). The experiment is described as follows: SPR, pMHC captured (anti-His), bivalent antibody in solution; avidity, average.
Method: as §1
For experiment [4], the target named is HLA-A2 on unpulsed T2 cells (human). The experiment is described as follows: flow cytometry on unpulsed T2 cells, anti-human IgG-Fc PE secondary, MFI. (In general: Flow cytometry measures light scatter and fluorescence of single cells or particles in a stream.)
For experiment [5], the target named is T3, HLA-A2/WT1RMF complex on cells (human).
T3 construct: also called RMF peptide-pulsed T2 cells; SKM-1 cells
The experiment is described as follows: flow cytometry on peptide-pulsed T2 cells, anti-human IgG-Fc PE secondary, MFI.
From the text: (§2) We first measured the binding specificity on peptide-pulsed T2 cells by the IgG binders generated from phage display by flow cytometry. […] Cells were acquired on FACS LSR II (BD), and data are presented as mean fluorescence intensity (MFI) of PE in Graphpad Prism.

Experiment [6] has as its target T4, HLA-A2/WT1VLD complex on VLD peptide-pulsed T2 cells (human). Described as above.
From the text: as §2
Experiment [7] deals with T2, HLA-A2/WT1RMF complex (soluble). The experiment is described as follows: SPR, pMHC captured (anti-His), bivalent antibody in solution; apparent KD (avidity), average.
Method: as §1
In experiment [8] the target is T3, HLA-A2/WT1RMF complex on cells. The experiment is described as follows: flow cytometry on peptide-pulsed T2 cells, anti-human IgG-Fc PE secondary, MFI. The source holds these as a separate data set.
From the text: as §2
In experiment [9] the target is T4, HLA-A2/WT1VLD complex on VLD …. The experiment is described as above. This is another data set of the same source.
From the text: as §2
Experiment [10] addresses T3, HLA-A2/WT1RMF complex on cells. The experiment is described as follows: flow cytometry on peptide-pulsed T2 cells, anti-human Fc secondary, MFI.
From the text: as §2
In experiment [11] the target is HLA-A2 with MED13L peptide … on peptide-pulsed T2 cells (human). The description is as above.
From the text: as §2
Experiment [12] deals with T5, CD3 (Homo sapiens (Human), UniProt P07766 23-126).
T5 construct: also called human CD3
The experiment is described as follows: method not stated.

Experiment [13] has as its target HLA-A2 on unpulsed T2 cells (human). The experiment is described as follows: flow cytometry on unpulsed T2 cells, anti-human IgG-Fc PE secondary, MFI. The source holds these as a separate data set.
From the text: (§3) Cells were acquired on FACS LSR II (BD), and data are presented as mean fluorescence intensity (MFI) of PE in Graphpad Prism.
The target of experiment [14] is T3, HLA-A2/WT1RMF complex on cells. The experiment is described as follows: flow cytometry on peptide-pulsed T2 cells, anti-human IgG-Fc PE secondary, MFI. This is another data set of the same source.
From the text: as §2
The target in experiment [15] is T4, HLA-A2/WT1VLD complex on VLD …. Described as above. The source holds these as a separate data set.
From the text: as §2
Experiment [16] addresses T3, HLA-A2/WT1RMF complex on cells. The experiment is described as above. The source holds these as a separate data set.
From the text: as §2
Experiment [17] addresses T4, HLA-A2/WT1VLD complex on VLD …. Described as above. This is another data set of the same source.
From the text: as §2
Experiment [18] has as its target HLA-A2 on unpulsed T2 cells (human). The experiment is described as follows: flow cytometry on unpulsed T2 cells, anti-human IgG-Fc PE secondary, MFI. The source holds these as a separate data set.
From the text: as §3
The target of experiment [19] is T3, HLA-A2/WT1RMF complex on cells. The experiment is described as follows: flow cytometry on peptide-pulsed T2 cells, anti-human IgG-Fc PE secondary, MFI. This is another data set of the same source.
From the text: as §2
Experiment [20] has as its target T4, HLA-A2/WT1VLD complex on VLD …. Described as above. The source holds these as a separate data set.
From the text: as §2
In experiment [21] the target is T3, HLA-A2/WT1RMF complex on cells. The description is as above. The source holds these as a separate data set.
From the text: as §2
Experiment [22] has as its target T4, HLA-A2/WT1VLD complex on VLD …. Described as above. This is another data set of the same source.
From the text: as §2
The target is the same in experiment [23]. The description is as above. This is another data set of the same source.
From the text: as §2

Several values for one entry are separate records, joined by “and”; a condition that tells them apart may be missing. Equal values may be shown once. Read-outs that look alike come from different tables or passages of the source.

B1: 11D06-huIgG1 (antibody, V domains shown)
VH: QVQLVQSGAEVKKPGSSVKVSCKASGGTFSSYAISWVRQAPGQGLEWMGGIIPIFGTANYAQKFQGRVTITADKSTSTAYMELSSLRSEDTAVYYCARSIELWWGGFDYWGQGTTVTVSS
VL: DIQMTQSPSTLSASVGDRVTITCRASQSISSWLAWYQQKPGKAPKLLIYDASSLESGVPSRFSGSGSGTEFTLTIGSLQPDDFATYYCQQYEDYTTFGQGTKVEIK
notes: also called 11D06-IgG; 11D06 IgG
With B1, the binding result is “no binding (tested: 1.23 to 100 nM)” in experiment [1], “no binding (tested: 10 µg/ml)” in experiment [4] and “no binding (tested: 10 µg/ml)” in experiment [6]. Besides, the Kd is 35 nM and 34 nM in [2]; 0.61 nM in [7]. For the same molecule, the dissociation rate constant (koff) in experiment [2] was 0.0378 s⁻¹ and 0.0357 s⁻¹; in [3], 0.00181 s⁻¹. The on-rate (kon) is 1.08e+06 M⁻¹ s⁻¹ and 1.04e+06 M⁻¹ s⁻¹ in experiment [2]; 2.97e+06 M⁻¹ s⁻¹ in experiment [3]. The half-maximal effective concentration (EC50 (read off the curve)) in [5] was approximately 0.06 µg/mL.

B2: 11B09-IgG (antibody, V domains shown)
VH: QVQLVQSGAEVKKPGSSVKVSCKASGGTFSSYAISWVRQAPGQGLEWMGGIIPIFGTANYAQKFQGRVTITADKSTSTAYMELSSLRSEDTAVYYCARVPGRWYGAMDYWGQGTTVTVSS
VL: DIQMTQSPSTLSASVGDRVTITCRASQSISSWLAWYQQKPGKAPKLLIYDASSLESGVPSRFSGSGSGTEFTLTISSLQPDDFATYYCQQEDDYPLTFGQGTKVEIK
As for B2, the binding result in [8] is reported as “no binding (tested: 1 µg/ml)”. The “EC50 (read off the curve)” value in experiment [9] was approximately 0.02 µg/mL.

B3: ESK1-TCB (bispecific antibody, V domains shown)
VH 1: QMQLVQSGAEVKEPGESLRISCKGSGYSFTNFWISWVRQMPGKGLEWMGRVDPGYSYSTYSPSFQGHVTISADKSTSTAYLQWNSLKASDTAMYYCARVQYSGYYDWFDPWGQGTLVTVSS
VL 1: not shown
VH 2: not shown
VL 2: QAVVTQEPSLTVSPGGTVTLTCGSSTGAVTTSNYANWVQEKPGQAFRGLIGGTNKRAPGTPARFSGSLLGGKAALTLSGAQPEDEAEYYCALWYSNLWVFGGGTKLTVL
Take B3: the “EC50 (read off the curve)” value in experiment [10] is approximately 1 µg/mL; in experiment [11] it was approximately 0.3 µg/mL.

B4: CD3 binder CH2527 (antibody, V domains shown)
VH: not shown
VL: QAVVTQEPSLTVSPGGTVTLTCGSSTGAVTTSNYANWVQEKPGQAFRGLIGGTNKRAPGTPARFSGSLLGGKAALTLSGAQPEDEAEYYCALWYSNLWVFGGGTKLTVL
In experiment [12], B4 showed a Kd of 85 to 130 nM.

B5: 5E11-IgG (antibody, V domains shown)
VH: QVQLVQSGAEVKKPGSSVKVSCKASGGTFSSYAISWVRQAPGQGLEWMGGIIPIFGTANYAQKFQGRVTITADKSTSTAYMELSSLRSEDTAVYYCARSSYDLYSFDYWGQGTTVTVSS
VL: DIQMTQSPSTLSASVGDRVTITCRASQSISSWLAWYQQKPGKAPKLLIYDASSLESGVPSRFSGSGSGTEFTLTISSLQPDDFATYYCQQYSFPPMITFGQGTKVEIK
For the molecule B5, the binding result in experiment [13] and in experiment [15] was “no binding (tested: 10 µg/ml)” throughout. For the same molecule, in [14], the “EC50 (read off the curve)” value was approximately 0.7 µg/mL.

B6: 5C01-IgG (antibody, V domains shown)
VH: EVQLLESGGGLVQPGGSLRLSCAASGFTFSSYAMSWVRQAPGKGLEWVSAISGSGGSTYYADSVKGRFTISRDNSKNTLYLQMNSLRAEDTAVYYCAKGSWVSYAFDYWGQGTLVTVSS
VL: DIQMTQSPSTLSASVGDRVTITCRASQSISSWLAWYQQKPGKAPKLLIYDASSLESGVPSRFSGSGSGTEFTLTISSLQPDDFATYYCQQYSIWFPYTFGQGTKVEIK
Take B6: in [16], the binding result was “no binding (tested: 1 µg/ml)”. The “EC50 (read off the curve)” value in [17] was approximately 0.02 µg/mL.

B7: 33H09-huIgG1 (antibody, V domains shown)
VH: QVQLVQSGAEVKKPGSSVKVSCKASGGTFSSYAISWVRQAPGQGLEWMGGIIPIFGTANYAQKFQGRVTITADKSTSTAYMELSSLRSEDTAVYYCARGSYDLFSLDYWGQGTTVTVSS
VL: DIQMTQSPSTLSASVGDRVTITCRASQSISSWLAWYQQKPGKAPKLLIYDASSLESGVPSRFSGSGSGTEFTLTISSLQPDDFATYYCQQYYDGITFGQGTKVEIK
notes: also called 33H09-IgG
Turning to B7, the binding result is listed as “no binding (tested: 1.23 to 100 nM)” in experiment [1], “no binding (tested: 1 µg/ml)” in [18] and “no binding (tested: 1 µg/ml)” in [20]. The Kd is 70 nM and 69 nM in [2]; 0.75 nM in experiment [7]. Moreover, the off-rate (koff) is 0.116 s⁻¹ and 0.124 s⁻¹ in [2]; 0.00357 s⁻¹ in experiment [3]. Further, the kon in experiment [2] was 1.67e+06 M⁻¹ s⁻¹ and 1.8e+06 M⁻¹ s⁻¹; in [3], 4.74e+06 M⁻¹ s⁻¹. In addition, in experiment [19], the “EC50 (read off the curve)” value was approximately 0.06 µg/mL.

B8: 13B04-IgG (antibody, V domains shown)
VH: EVQLLESGPGLVKPSETLSLTCTVSGGSISSYYWSWIRQPPGKGLEWIGYIYYSGSTNYNPSLKSRVTISVDTSKNQFSLKLSSVTAADTAVYYCARVSYNGLDYWGQGTLVTVSS
VL: DIQMTQSPSTLSASVGDRVTITCRASQSISSWLAWYQQKPGKAPKLLIYDASSLESGVPSRFSGSGSGTEFTLTISSLQPDDFATYYCQQYNMWNPVTFGQGTKVEIK
For B8, the binding result in experiment [21] was “no binding (tested: 1 µg/ml)”. In experiment [22], the concentration for a half-maximal effect (EC50 (read off the curve)) is approximately 0.06 µg/mL.

B9: 11G06-huIgG1 (antibody, V domains shown)
VH: QVQLVQSGAEVKKPGSSVKVSCKASGGTFSSYAISWVRQAPGQGLEWMGGIIPIFGTANYAQKFQGRVTITADKSTSTAYMELSSLRSEDTAVYYCARTGPYYGAFDYWGQGTTVTVSS
VL: DIQMTQSPSTLSASVGDRVTITCRASQSISSWLAWYQQKPGKAPKLLIYDASSLESGVPSRFSGSGSGTEFTLTISSLQPDDFATYYCQQGFRGYTFGQGTKVEIK
notes: also called 11G06-IgG
For B9, the binding result in experiment [23] is reported as “binds”.

B10: CD3 binder V9 (antibody, V domains shown)
VH: EVQLVESGGGLVQPGGSLRLSCAASGYSFTGYTMNWVRQAPGKGLEWVALINPYKGVSTYNQKFKDRFTISVDKSKNTAYLQMNSLRAEDTAVYYCARSGYYGDSDWYFDVWGQGTLVTVSS
VL: DIQMTQSPSSLSASVGDRVTITCRASQDIRNYLNWYQQKPGKAPKLLIYYTSRLESGVPSRFSGSGSGTDYTLTISSLQPEDFATYYCQQGNTLPWTFGQGTKVEIK
In turn, B10 came in with a Kd in [12] of 35 to 50 nM.

A word on the koff: it is the rate constant with which the complex falls apart. As usually defined, the kon is the rate constant with which the complex forms. Higher therefore signals faster complex formation. One may read the EC50 (read off the curve) as the concentration needed to bring the measured effect to its halfway point. Read a low EC50 (read off the curve) as a more potent agent.
